Experimental findings from the RNAGym collection of RNA variant scans (doi:10.7554/elife.90254) are described below.

The chains are these.
B1: OR4K15 (parent)
chain: GUUAACGGUCAUAGGCCAUGGAAACUAGGAGCACCAUUUCGCUGCCAGUGAAGAAAUGAACAAAGAAAAUCUGGGCCAGGCAGGCAUCAAAAGAAAUAGUCUUGCGCUCAACCAGAAAGUCUGUAAUCAUUUUAAGGGUA

Variants of B1 are the subject of this data set. Nature of the data set: self-cleavage, relative activity (ratio to wild type); higher = more cleavage; in vitro, sequencing; the parent is a self-cleaving ribozyme.
For the variant U3C U97C, the self-cleavage came out at 1.12.

Consider A5C A30G, for which the self-cleavage was 0.85.

Regarding U2C C61U, the self-cleavage stood at 1.77.

For A4C U87C, the self-cleavage amounted to 0.81.

Regarding U2C U49C, the self-cleavage was 1.34.

Regarding U2C U49A, the self-cleavage worked out at 1.5.

With U3C A89U, the self-cleavage is 0.54.

Turning to U3C A89G, the self-cleavage is 0.99.

As to U3C U122C, the self-cleavage amounted to 1.32.

In the case of U2C A30G, the self-cleavage is 1.22.

Take A4G A18G: the self-cleavage was found to be 1.23.

Take U3C U132G: the self-cleavage was 0.36.

For U2C U139A, the self-cleavage is 0.92.

A4G A36G: the self-cleavage was determined as 1.43.

As to U2C, the self-cleavage was 0.88.

For U2G, the self-cleavage is 0.92.

With A4G U9C, the self-cleavage is 1.33.

For U3C U12C, the self-cleavage was 1.24.

A4G A11G: the self-cleavage was 0.86.

Take A4U U120C: the self-cleavage is 0.54.

With A5C A110U, the self-cleavage was 0.95.

Consider U2A U127C, for which the self-cleavage was 1.08.

For the variant U3C A118G, the self-cleavage came out at 0.54.

Consider U3C A118U, for which the self-cleavage came out at 1.94.

For the variant A5C A116G, the self-cleavage was determined as 0.83.

For the variant A4C A24G, the self-cleavage came to 0.75.

Consider A4C A24U, for which the self-cleavage was found to be 0.5.

In the case of A4G G83A, the self-cleavage was determined as 1.44.

For the variant U2C G136A, the self-cleavage was determined as 1.66.

As for A4G G75A, the self-cleavage is 0.33.

For the variant U2C U130C, the self-cleavage came to 1.06.

For U3A U130G, the self-cleavage turned out to be 0.73.

As for U3C A24G, the self-cleavage stood at 0.9.

As for U2C A22G, the self-cleavage turned out to be 1.11.

For U2C A22U, the self-cleavage amounted to 1.51.

With A4G A135G, the self-cleavage stood at 1.18.

With U3A U100C, the self-cleavage came out at 1.63.

With A5C A66U, the self-cleavage was 0.83.

In the case of U3C A96U, the self-cleavage came to 1.02.

Regarding U3C A96G, the self-cleavage turned out to be 1.3.

As to A4G A114G, the self-cleavage is 0.76.

Regarding A4U A118G, the self-cleavage stood at 1.08.

Regarding U2C A116U, the self-cleavage was 0.

Take A4U U57G: the self-cleavage turned out to be 0.74.

For U2G U38A, the self-cleavage came out at 1.08.

Consider A4U A96G, for which the self-cleavage came out at 1.05.

Regarding A4G A30G, the self-cleavage worked out at 0.64.

As to U2C U57G, the self-cleavage stood at 0.66.

Take U2C U57C: the self-cleavage was determined as 0.75.

For A4G A56U, the self-cleavage is 0.65.

Regarding U2A G104A, the self-cleavage worked out at 0.16.

In the case of U3G A140G, the self-cleavage was determined as 1.39.

As to U2G A11G, the self-cleavage stood at 1.05.

As for U3C U70C, the self-cleavage came to 0.76.

Take U3A A125G: the self-cleavage was found to be 0.39.

In the case of A5C U57C, the self-cleavage is 0.75.

As to A5C U102C, the self-cleavage amounted to 0.96.

For U2C U122A, the self-cleavage was 1.85.

As to A4G U139C, the self-cleavage amounted to 1.21.

Consider U2G A23G, for which the self-cleavage turned out to be 0.75.

With A4G U102C, the self-cleavage came out at 1.36.

As for U2C A82G, the self-cleavage is 0.55.

Consider U2C A82U, for which the self-cleavage was 0.17.

Take U2C G138A: the self-cleavage was 1.1.

As to U2C U70G, the self-cleavage was found to be 1.51.

For A4G A125G, the self-cleavage was 0.55.

For U3C A114U, the self-cleavage was determined as 0.04.

In the case of U2C U26C, the self-cleavage amounted to 1.2.

In the case of U2C U26G, the self-cleavage turned out to be 0.72.

For the variant U3A U127A, the self-cleavage stood at 1.84.

Regarding A4U A114U, the self-cleavage was 0.22.

Regarding U2C G137U, the self-cleavage turned out to be 1.25.

On to A5C U108C, for which the self-cleavage was 0.03.

As to U2G A140G, the self-cleavage amounted to 1.09.

For the variant U3A A47U, the self-cleavage came out at 1.18.

Consider U3A A66G, for which the self-cleavage amounted to 1.1.

Consider U2C G7A, for which the self-cleavage was found to be 1.22.

As to U2C G7U, the self-cleavage came out at 1.2.

Consider A4G U43C, for which the self-cleavage stood at 1.35.

U2C A69U: the self-cleavage is 1.15.

Take U3A A23G: the self-cleavage worked out at 1.17.

With U2G A135G, the self-cleavage is 0.69.

As to A4G A91U, the self-cleavage stood at 1.36.

On to A4G A91G, for which the self-cleavage stood at 1.13.

U2C A64U: the self-cleavage came out at 1.3.

Take U3C A18U: the self-cleavage was 0.78.

U3C A18G: the self-cleavage worked out at 1.02.

As to U3C A52U, the self-cleavage was 1.8.

On to U3A G65U, for which the self-cleavage is 0.33.

Take U2C U133C: the self-cleavage was found to be 0.71.

With A4G G20A, the self-cleavage turned out to be 0.82.

A4G A126G: the self-cleavage is 1.09.

Turning to U2A C77U, the self-cleavage came to 1.39.

Take A4G A66G: the self-cleavage is 0.53.

Turning to U3A A126G, the self-cleavage was 1.73.

With U2C A86G, the self-cleavage stood at 0.95.

With U2C A86U, the self-cleavage turned out to be 2.13.

For the variant U2A U3A, the self-cleavage came to 1.16.

For U2A G14C, the self-cleavage turned out to be 0.7.

U2A U26C: the self-cleavage came out at 0.99.

For U2C U37C, the self-cleavage came out at 1.26.

Consider U2C U37G, for which the self-cleavage is 0.75.

For A4G G14U, the self-cleavage turned out to be 0.67.

Turning to A4U A36U, the self-cleavage stood at 1.62.

U2C A111U: the self-cleavage is 0.27.

On to U3C A5G, for which the self-cleavage is 1.

A4G U57C: the self-cleavage worked out at 0.86.

On to U2C U72G, for which the self-cleavage is 0.19.

Regarding U2C A126U, the self-cleavage was found to be 0.77.

Take A5C A33U: the self-cleavage stood at 2.21.

For the variant U2C A52U, the self-cleavage was 0.38.

Turning to A4G A68G, the self-cleavage came to 0.87.

In the case of U2C C16U, the self-cleavage worked out at 0.69.

Regarding U2C A96G, the self-cleavage turned out to be 1.1.

Take A4G A23G: the self-cleavage came out at 1.09.

On to U2C A117G, for which the self-cleavage was found to be 1.33.

Regarding U3A A111G, the self-cleavage worked out at 0.08.

In the case of U2C A23G, the self-cleavage came out at 1.01.

As for U2C C10U, the self-cleavage was determined as 1.04.

As to U3C A98G, the self-cleavage stood at 0.6.

Turning to U3C A98C, the self-cleavage worked out at 1.18.

On to U3C A23C, for which the self-cleavage was found to be 1.42.

With U2C G50U, the self-cleavage was 1.13.

On to U2G A94G, for which the self-cleavage was 0.48.

For the variant U3A A5U, the self-cleavage is 0.64.

On to U2C U87A, for which the self-cleavage is 0.9.

For the variant U2G U19A, the self-cleavage came to 0.72.

In the case of U2G U102C, the self-cleavage was found to be 0.94.

As to U2C A55U, the self-cleavage was 1.46.

Turning to U2C A55G, the self-cleavage stood at 1.15.

Turning to U2C C46U, the self-cleavage was 0.54.

Turning to U2G A63C, the self-cleavage was determined as 0.7.

As to U3C A82U, the self-cleavage was determined as 0.21.

With U3A U70A, the self-cleavage was 1.46.

In the case of U3C G48A, the self-cleavage turned out to be 0.97.

For the variant U2C A110G, the self-cleavage is 0.11.

Consider U3A U139A, for which the self-cleavage worked out at 1.89.

Regarding U3C U120A, the self-cleavage stood at 1.72.

As for U3C U120C, the self-cleavage came to 1.42.

For the variant A5C U87C, the self-cleavage came to 0.73.

For the variant A5C A126G, the self-cleavage turned out to be 1.54.

Take U2G A51G: the self-cleavage was determined as 0.95.

For the variant A4G U122C, the self-cleavage was 0.78.

Take U2C U102C: the self-cleavage amounted to 0.64.

With U2C U102A, the self-cleavage was found to be 0.73.

With A4G A52G, the self-cleavage amounted to 1.08.

For A4C C81U, the self-cleavage came to 0.79.

For the variant A4G U127C, the self-cleavage is 0.38.

For the variant U3C C77U, the self-cleavage worked out at 0.69.

Consider U3C U26C, for which the self-cleavage came to 1.29.

For U2A U132C, the self-cleavage came to 1.21.

For U3C U43C, the self-cleavage was 0.78.

On to U2G A118G, for which the self-cleavage was 0.66.

As for U2C A92G, the self-cleavage was determined as 0.98.

Turning to U2C A5G, the self-cleavage came out at 0.24.

As for A4G C42U, the self-cleavage came out at 0.81.

Take U2C A4G: the self-cleavage came out at 0.87.

With U2A U100C, the self-cleavage is 0.89.

On to U2C U120C, for which the self-cleavage came to 0.43.

For the variant U2G U130C, the self-cleavage came out at 0.3.

On to A4G A51G, for which the self-cleavage was found to be 1.01.

Turning to U3C G75C, the self-cleavage worked out at 0.08.

In the case of U3C G75A, the self-cleavage stood at 0.11.

Consider A4G U133C, for which the self-cleavage worked out at 1.3.

Turning to A4G U133A, the self-cleavage came out at 1.25.

Take A4G A67G: the self-cleavage was found to be 1.16.

As for A4G A22G, the self-cleavage was determined as 1.17.
